These results are taken from IntAct's records for PubMed 20682316.

First the molecules themselves.
B1: Oxysterols receptor LXR-alpha (Homo sapiens), Q13133 (parent)
chain: MSLWLGAPVPDIPPDSAVELWKPGAQDASSQAQGGSSCILREEARMPHSAGGTAGVGLEAAEPTALLTRAEPPSEPTEIRPQKRKKGPAPKMLGNELCSVCGDKASGFHYNVLSCEGCKGFFRRSVIKGAHYICHSGGHCPMDTYMRRKCQECRLRKCRQAGMREECVLSEEQIRLKKLKRQEEEQAHATSLPPRASSPPQILPQLSPEQLGMIEKLVAAQQQCNRRSFSDRLRVTPWPMAPDPHSREARQQRFAHFTELAIVSVQEIVDFAKQLPGFLQLSREDQIALLKTSAIEVMLLETSRRYNPGSESITFLKDFSYNREDFAKAGLQVEFINPIFEFSRAMNELQLNDAEFALLIAISIFSADRPNVQDQLQVERLQHTYVEALHAYVSIHHPHDRLMFPRMLMKLVSLRTLSSVHSEQVFALRLQDKKLPPLLSEIWDVHE
B2: Retinoic acid receptor RXR-alpha (Homo sapiens), P19793 (parent)
chain: MDTKHFLPLDFSTQVNSSLTSPTGRGSMAAPSLHPSLGPGIGSPGQLHSPISTLSSPINGMGPPFSVISSPMGPHSMSVPTTPTLGFSTGSPQLSSPMNPVSSSEDIKPPLGLNGVLKVPAHPSGNMASFTKHICAICGDRSSGKHYGVYSCEGCKGFFKRTVRKDLTYTCRDNKDCLIDKRQRNRCQYCRYQKCLAMGMKREAVQEERQRGKDRNENEVESTSSANEDMPVERILEAELAVEPKTETYVEANMGLNPSSPNDPVTNICQAADKQLFTLVEWAKRIPHFSELPLDDQVILLRAGWNELLIASFSHRSIAVKDGILLATGLHVHRNSAHSAGVGAIFDRVLTELVSKMRDMQMDKTELGCLRAIVLFNPDSKGLSNPAEVEALREKVYASLEAYCKHKYPEQPGRFAKLLLRLPALRSIGLKCLEHLFFFKLIGDTPIDTFLMEMLEAPHQMT

The variants in the first assay derive from B1. To be noted: with ncoa1_human NCOA1, Q15788.
Target sequence in this assay (Q15788 whole entry): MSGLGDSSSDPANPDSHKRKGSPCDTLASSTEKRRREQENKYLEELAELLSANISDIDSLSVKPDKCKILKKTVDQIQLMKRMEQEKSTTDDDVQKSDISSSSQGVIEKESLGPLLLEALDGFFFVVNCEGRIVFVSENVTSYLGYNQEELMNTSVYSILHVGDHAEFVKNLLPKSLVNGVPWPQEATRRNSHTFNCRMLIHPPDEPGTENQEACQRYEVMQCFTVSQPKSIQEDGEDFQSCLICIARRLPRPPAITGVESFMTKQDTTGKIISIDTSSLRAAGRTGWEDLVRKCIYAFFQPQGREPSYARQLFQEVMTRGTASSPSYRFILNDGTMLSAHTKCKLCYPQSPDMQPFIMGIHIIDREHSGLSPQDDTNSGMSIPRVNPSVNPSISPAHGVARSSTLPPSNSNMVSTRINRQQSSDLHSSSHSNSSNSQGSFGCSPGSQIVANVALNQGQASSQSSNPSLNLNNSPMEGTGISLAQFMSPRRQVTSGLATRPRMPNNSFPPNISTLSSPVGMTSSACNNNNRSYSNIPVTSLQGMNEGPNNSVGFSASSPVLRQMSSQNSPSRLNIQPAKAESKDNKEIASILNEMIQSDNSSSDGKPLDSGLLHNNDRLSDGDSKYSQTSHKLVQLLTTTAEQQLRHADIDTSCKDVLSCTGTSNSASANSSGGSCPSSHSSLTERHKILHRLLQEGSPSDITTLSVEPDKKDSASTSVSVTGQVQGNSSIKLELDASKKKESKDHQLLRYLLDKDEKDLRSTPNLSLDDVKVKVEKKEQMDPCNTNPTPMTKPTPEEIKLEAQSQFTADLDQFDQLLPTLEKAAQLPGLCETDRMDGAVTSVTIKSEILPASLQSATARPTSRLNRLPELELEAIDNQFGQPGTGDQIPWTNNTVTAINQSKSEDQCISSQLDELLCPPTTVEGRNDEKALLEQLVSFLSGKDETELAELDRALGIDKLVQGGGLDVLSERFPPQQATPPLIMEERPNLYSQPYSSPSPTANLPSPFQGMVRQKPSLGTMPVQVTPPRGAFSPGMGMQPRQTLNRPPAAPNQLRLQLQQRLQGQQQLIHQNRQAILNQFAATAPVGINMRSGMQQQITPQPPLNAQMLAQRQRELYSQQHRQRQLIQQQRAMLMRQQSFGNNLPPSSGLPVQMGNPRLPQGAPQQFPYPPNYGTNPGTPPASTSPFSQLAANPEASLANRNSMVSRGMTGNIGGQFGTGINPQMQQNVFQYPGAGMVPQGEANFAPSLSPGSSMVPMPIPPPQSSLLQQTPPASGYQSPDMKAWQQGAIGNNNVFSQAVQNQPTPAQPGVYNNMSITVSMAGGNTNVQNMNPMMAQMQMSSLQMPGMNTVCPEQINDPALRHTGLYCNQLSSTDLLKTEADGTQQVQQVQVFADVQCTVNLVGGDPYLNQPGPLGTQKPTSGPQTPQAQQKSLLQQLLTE
With I442A, the “effect of a mutation on the interaction” value was “disrupting interaction”. As for E441A, the “effect of a mutation on the interaction” value is reported as “disrupting interaction”.

In the next assay the parent is B1. Conditions: with ncoa1_human NCOA1, Q15788. This is another data set of the same source.
Target sequence in this assay (Q15788 whole entry): as above
As for K273A, the “effect of a mutation on the interaction” value is listed as “disrupting interaction”.

A further assay covers variants of B2. Conditions: with ncoa1_human NCOA1, Q15788.
Target sequence in this assay (Q15788 whole entry): as above
Turning to K284A, the “effect of a mutation on the interaction” value is given as “disrupting interaction”.
